The values that follow are results of earlier work, collected in patent US20050026224A1, “Methods and compositions for modulating G-protein coupled receptor 54” (priority 2003, published 2005).

Series [1] relates to GPR54 transfected CHO cells. The following applies: GPR54 transfected CHO cells in vitro; Ohtaki et al. 2001.
In series [2] the test system is GPR54 transfected CHO cells. The following applies: GPR54 transfected CHO cells in vitro; Ohtaki et al. 2001. The source holds these as a separate data set.
Series [3] relates to cell motility. The following applies: Hori et al. 2001.
Series [4] has as its system GPR54-transfected B16-BL6 melanomas. The following applies: GPR54-transfected B16-BL6 melanomas in vivo; Ohtaki et al. 2001.
In series [5] the test system is cell motility. The conditions noted are these: Hori et al. 2001. This is another data set of the same source.

B1: Metastin: peptide ligand agonist for GPR54; protein product of the Kiss-1 gene (SEQ ID NO: 4) (protein, listed as Homo sapiens)
chain: MNSLVSWQLLLFLCATHFGEPLEKVASVGNSRPTGQQLESLGLLAPGEQSLPCTERKPAATARLSRRGTSLSPPPESSGSRQQPGLSAPHSRQIPAPQGAVLVQREKDLPNYNWNSFGLRFGKREAAPGNHGRSAGRGWGAGAGQ
As for B1, the chemotaxis result in series [1] is “inhibits chemotaxis”. Besides, the invasion result in series [2] was “inhibits”. Also, the “cell motility in a chemotaxis assay” value in series [3] was “suppress cell motility”. Further, the pulmonary metastasis result in series [4] is recorded as “attenuates pulmonary metastasis”. For the same molecule, the “cell motility in a wound healing assay” value in series [5] is “suppress cell motility”.
